From patent US20040126379A1

B1: BIWA 4 (antibody, human IgG1, kappa, V domains shown)
VH: EVQLVESGGGLVKPGGSLRLSCAASGFTFSSYDMSWVRQAPGKGLEWVSTISSGGSYTYYLDSIKGRFTISRDNAKNSLYLQMNSLRAEDTAVYYCARQGLDYWGRGTLVTVSS
VL: EIVLTQSPATLSLSPGERATLSCSASSSINYIYWYQQKPGQAPRLLIYLTSNLASGVPARFSGSGSGTDFTLTISSLEPEDFAVYYCLQWSSNPLTFGGGTKVEIKR

Molecular target: human CD44v6 on antigen-positive FaDu cells (human) (UniProt P16070)
Assay: flow cytometry (FACS) on antigen-positive FaDu cells, on ice 1 h, FITC-labeled anti-human IgG detection

Molecule | Kd
BIWI 1 (from UniProt P0DOX5 2-449) | 1.8 nM
B1 | 1 nM
